# Test results from PMC9935549, “Mechanisms of the RNA helicases DDX42 and DDX46 in human U2 snRNP assembly” (Nature Communications, 2023).
# Target: T1, SF3b core complex, 6xHis-tagged (SF3B1 454–1304, 6xHis-SF3B3, SF3B5, PHF5A) (human, UniProt O75533 454-1304; Q15393 1-1217; Q9BWJ5 1-86; Q7RTV0 1-110)
# T1 construct: SF3B1, human, residues 454-1304; SF3B3, human, full-length cDNA; SF3B5, human, full-length cDNA; PHF5A, human, full-length cDNA; the 6xHis tag replaces the N-terminal Twin-Strep tag of SF3B3, so it is probably N-terminal; also called SF3b core (6xHis-tagged); source: HEK293F, co-transfected, purified; prepared as the SF3b core except that the Strep-tag on SF3B3 was replaced by a 6xHis tag; …
# T1 sequence (O75533 454-1304, chain 1 of 4): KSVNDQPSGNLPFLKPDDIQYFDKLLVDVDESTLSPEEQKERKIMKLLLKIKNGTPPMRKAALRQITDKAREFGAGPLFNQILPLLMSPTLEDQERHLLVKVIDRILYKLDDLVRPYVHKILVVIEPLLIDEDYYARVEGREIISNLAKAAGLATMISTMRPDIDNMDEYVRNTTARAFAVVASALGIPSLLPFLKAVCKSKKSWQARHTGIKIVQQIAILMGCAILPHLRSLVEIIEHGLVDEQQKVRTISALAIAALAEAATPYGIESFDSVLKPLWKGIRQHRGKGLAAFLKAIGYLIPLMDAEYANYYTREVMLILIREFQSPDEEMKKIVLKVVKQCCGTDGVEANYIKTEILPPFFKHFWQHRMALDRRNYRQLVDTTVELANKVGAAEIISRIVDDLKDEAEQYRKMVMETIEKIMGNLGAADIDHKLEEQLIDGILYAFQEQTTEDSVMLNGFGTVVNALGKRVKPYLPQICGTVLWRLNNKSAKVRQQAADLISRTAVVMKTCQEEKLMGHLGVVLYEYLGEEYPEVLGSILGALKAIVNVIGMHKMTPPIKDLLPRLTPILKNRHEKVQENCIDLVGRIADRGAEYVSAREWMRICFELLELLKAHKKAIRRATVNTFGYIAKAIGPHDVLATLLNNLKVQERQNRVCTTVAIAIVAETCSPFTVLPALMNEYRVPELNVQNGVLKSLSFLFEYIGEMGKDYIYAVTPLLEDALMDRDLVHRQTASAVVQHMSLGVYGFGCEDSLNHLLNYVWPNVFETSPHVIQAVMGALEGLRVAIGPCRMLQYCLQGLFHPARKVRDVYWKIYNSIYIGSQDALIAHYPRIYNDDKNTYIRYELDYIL
# T1 sequence (Q15393 whole entry, chain 2 of 4, the tested form may be a part): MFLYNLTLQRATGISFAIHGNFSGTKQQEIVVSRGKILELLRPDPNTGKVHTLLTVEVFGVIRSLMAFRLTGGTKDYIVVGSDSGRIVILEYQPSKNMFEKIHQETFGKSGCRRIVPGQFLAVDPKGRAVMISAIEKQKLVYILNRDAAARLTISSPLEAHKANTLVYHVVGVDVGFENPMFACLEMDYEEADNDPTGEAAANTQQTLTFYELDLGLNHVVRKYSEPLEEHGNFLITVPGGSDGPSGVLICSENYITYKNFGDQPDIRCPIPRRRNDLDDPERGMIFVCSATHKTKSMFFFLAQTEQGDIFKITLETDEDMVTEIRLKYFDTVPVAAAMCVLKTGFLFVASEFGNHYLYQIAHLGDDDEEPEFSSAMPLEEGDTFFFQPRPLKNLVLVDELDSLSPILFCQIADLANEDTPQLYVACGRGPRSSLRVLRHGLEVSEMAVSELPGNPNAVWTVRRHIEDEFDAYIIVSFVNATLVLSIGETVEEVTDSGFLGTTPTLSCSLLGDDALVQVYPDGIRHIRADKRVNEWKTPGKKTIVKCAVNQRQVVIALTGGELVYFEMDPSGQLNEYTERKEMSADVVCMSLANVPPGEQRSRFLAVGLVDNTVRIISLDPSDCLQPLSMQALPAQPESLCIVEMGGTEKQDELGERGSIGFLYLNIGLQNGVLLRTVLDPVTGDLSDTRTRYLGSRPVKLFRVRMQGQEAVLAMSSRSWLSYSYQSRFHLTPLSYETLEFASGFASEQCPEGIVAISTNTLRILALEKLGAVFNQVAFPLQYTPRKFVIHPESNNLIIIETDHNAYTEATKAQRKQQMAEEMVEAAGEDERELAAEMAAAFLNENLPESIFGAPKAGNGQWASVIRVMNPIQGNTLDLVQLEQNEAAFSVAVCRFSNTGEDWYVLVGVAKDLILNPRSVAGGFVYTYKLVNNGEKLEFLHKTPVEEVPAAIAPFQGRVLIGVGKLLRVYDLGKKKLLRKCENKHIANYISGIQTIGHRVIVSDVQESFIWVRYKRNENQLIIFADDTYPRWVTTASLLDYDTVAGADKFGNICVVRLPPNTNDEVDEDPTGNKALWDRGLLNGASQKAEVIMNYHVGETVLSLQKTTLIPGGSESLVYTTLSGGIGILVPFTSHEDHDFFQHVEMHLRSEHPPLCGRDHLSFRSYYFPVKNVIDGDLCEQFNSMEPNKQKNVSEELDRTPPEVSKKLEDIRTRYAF
# T1 sequence (Q9BWJ5 whole entry, chain 3 of 4, the tested form may be a part): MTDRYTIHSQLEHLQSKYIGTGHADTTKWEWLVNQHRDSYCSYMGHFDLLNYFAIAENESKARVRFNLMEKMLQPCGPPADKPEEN
# T1 sequence (Q7RTV0 whole entry, chain 4 of 4, the tested form may be a part): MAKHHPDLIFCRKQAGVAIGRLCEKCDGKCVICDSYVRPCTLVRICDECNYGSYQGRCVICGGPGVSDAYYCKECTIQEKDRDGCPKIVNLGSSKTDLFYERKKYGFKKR
# Experiment: BLI; 6xHis-tagged SF3b core (20 µg/mL) captured on Ni-NTA biosensors; Flag-DDX42 or Flag-DDX46 as analyte; lysis buffer (20 mM HEPES-KOH pH 7.9, 150 mM NaCl, 1.5 mM MgCl2, 0.05% NP-40); about 100 s association, 100 s dissociation; 1:1 model; apparent constants
# Conditions: both partners purified
row,Kd [nM],Binder
1,23,"Flag-DDX42 (full-length) (natural protein, DDX42, human, full-length cDNA; N-plug residues 69-81, helix alpha-3 114-135, helices alpha-2/alpha-1 145-167, helicase domain 207-643; source: HEK293F, transfected (pCAG): co-expressed with the SF3b core; alone as bait in lysate; not shown: Flag, N-terminal, kept) MNWNKGGPGTKRGFGFGGFAISAGKKEEPKLPQQSHSAFGATSSSSGFGKSAPPQLPSFYKIGSKRANFDEENAYFEDEEEDSSNVDLPYIPAENSPTRQQFHSKPVDSDSDDDPLEAFMAEVEDQAARDMKRLEEKDKERKNVKGIRDDIEEEDDQEAYFRYMAENPTAGVVQEEEEDNLEYDSDGNPIAPTKKIIDPLPPIDHSEIDYPPFEKNFYNEHEEITNLTPQQLIDLRHKLNLRVSGAAPPRPGSSFAHFGFDEQLMHQIRKSEYTQPTPIQCQGVPVALSGRDMIGIAKTGSGKTAAFIWPMLIHIMDQKELEPGDGPIAVIVCPTRELCQQIHAECKRFGKAYNLRSVAVYGGGSMWEQAKALQEGAEIVVCTPGRLIDHVKKKATNLQRVSYLVFDEADRMFDMGFEYQVRSIASHVRPDRQTLLFSATFRKKIEKLARDILIDPIRVVQGDIGEANEDVTQIVEILHSGPSKWNWLTRRLVEFTSSGSVLLFVTKKANAEELANNLKQEGHNLGLLHGDMDQSERNKVISDFKKKDIPVLVATDVAARGLDIPSIKTVINYDVARDIDTHTHRIGRTGRAGEKGVAYTLLTPKDSNFAGDLVRNLEGANQHVSKELLDLAMQNAWFRKSRFKGGKGKKLNIGGGGLGYRERPGLGSENMDRGNNNVMSNYEAYKPSTGAMGDRLTAMKAAFQSQYKSHFVAASLSNQKAGSSAAGASGWTSAGSLNSVPTNSAQQGHNSPDSPVTSAAKGIPGFGNTGNISGAPVTYPSAGAQGVNNTASGNNSREGTGGSNGKRERYTENRGSSRHSHGETGNRHSDSPRHGDGGRHGDGYRHPESSSRHTDGHRHGENRHGGSAGRHGENRGANDGRNGESRKEAFNRESKMEPKMEPKVDSSKMDKVDSKTDKTADGFAVPEPPKRKKSRWDS"
2,66,"Flag-DDX46 (natural protein, DDX46, human; source: HEK293F, overexpressed, purified (anti-Flag M2, Hitrap Heparin)) MGRESRHYRKRSASRGRSGSRSRSRSPSDKRSKRGDDRRSRSRDRDRRRERSRSRDKRRSRSRDRKRLRRSRSRERDRSRERRRSRSRDRRRSRSRSRGRRSRSSSPGNKSKKTENRSRSKEKTDGGESSKEKKKDKDDKEDEKEKDAGNFDQNKLEEEMRKRKERVEKWREEQRKKAMENIGELKKEIEEMKQGKKWSLEDDDDDEDDPAEAEKEGNEMEGEELDPLDAYMEEVKEEVKKFNMRSVKGGGGNEKKSGPTVTKVVTVVTTKKAVVDSDKKKGELMENDQDAMEYSSEEEEVDLQTALTGYQTKQRKLLEPVDHGKIEYEPFRKNFYVEVPELAKMSQEEVNVFRLEMEGITVKGKGCPKPIKSWVQCGISMKILNSLKKHGYEKPTPIQTQAIPAIMSGRDLIGIAKTGSGKTIAFLLPMFRHIMDQRSLEEGEGPIAVIMTPTRELALQITKECKKFSKTLGLRVVCVYGGTGISEQIAELKRGAEIIVCTPGRMIDMLAANSGRVTNLRRVTYVVLDEADRMFDMGFEPQVMRIVDNVRPDRQTVMFSATFPRAMEALARRILSKPIEVQVGGRSVVCSDVEQQVIVIEEEKKFLKLLELLGHYQESGSVIIFVDKQEHADGLLKDLMRASYPCMSLHGGIDQYDRDSIINDFKNGTCKLLVATSVAARGLDVKHLILVVNYSCPNHYEDYVHRAGRTGRAGNKGYAYTFITEDQARYAGDIIKALELSGTAVPPDLEKLWSDFKDQQKAEGKIIKKSSGFSGKGFKFDETEQALANERKKLQKAALGLQDSDDEDAAVDIDEQIESMFNSKKRVKDMAAPGTSSVPAPTAGNAEKLEIAKRLALRINAQKNLGIESQDVMQQATNAILRGGTILAPTVSAKTIAEQLAEKINAKLNYVPLEKQEEERQDGGQNESFKRYEEELEINDFPQTARWKVTSKEALQRISEYSEAAITIRGTYFPPGKEPKEGERKIYLAIESANELAVQKAKAEITRLIKEELIRLQNSYQPTNKGRYKVL"
